From paper doi:10.1101/2023.01.21.525003

Assays:
Assay in all cases: FRET or BRET
[1] = molecular target: Gluc-LHCGR^Cys131Arg (human) (UniProt P22888)
[2] = molecular target: Gluc-LHCGR^Glu354Lys (human) (UniProt P22888)
[3] = molecular target: Gluc-LHCGR^Ile152Thr (human) (UniProt P22888)
[4] = molecular target: Gluc-LHCGRv4 (Gaussia luciferase fused to the N-terminus of the luteinizing hormone/chorionic gonadotropin receptor) (human) (UniProt P22888)
Sequence of Gluc-LHCGRv4 (Gaussia luciferase fused to the N-terminus of the luteinizing hormone/chorionic gonadotropin receptor) (human) (P22888 27-699): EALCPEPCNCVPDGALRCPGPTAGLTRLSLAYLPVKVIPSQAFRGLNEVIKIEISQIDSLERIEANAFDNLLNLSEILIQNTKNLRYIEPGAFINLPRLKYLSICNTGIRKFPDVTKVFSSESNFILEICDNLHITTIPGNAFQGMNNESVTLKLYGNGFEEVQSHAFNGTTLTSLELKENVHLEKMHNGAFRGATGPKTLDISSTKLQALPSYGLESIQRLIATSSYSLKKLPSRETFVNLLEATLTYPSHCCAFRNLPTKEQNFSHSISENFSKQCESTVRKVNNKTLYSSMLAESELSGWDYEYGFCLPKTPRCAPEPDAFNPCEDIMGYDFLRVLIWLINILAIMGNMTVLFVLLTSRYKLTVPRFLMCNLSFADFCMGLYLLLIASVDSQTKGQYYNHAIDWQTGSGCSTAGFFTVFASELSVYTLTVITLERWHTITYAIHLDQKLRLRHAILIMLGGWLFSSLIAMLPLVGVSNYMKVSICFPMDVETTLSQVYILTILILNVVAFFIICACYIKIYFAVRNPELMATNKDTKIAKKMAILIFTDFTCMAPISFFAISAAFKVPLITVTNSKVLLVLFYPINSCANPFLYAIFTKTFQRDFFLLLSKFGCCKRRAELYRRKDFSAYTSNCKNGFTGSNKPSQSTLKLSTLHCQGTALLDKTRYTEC

Sequence of Gluc-LHCGR^Glu354Lys (human) (P22888 27-699 E354K): as the sequence (P22888 27-699) above, with E328K counted along it
Sequence of Gluc-LHCGR^Ile152Thr (human) (P22888 27-699 I152T): as the sequence (P22888 27-699) above, with I126T counted along it
Sequence of Gluc-LHCGR^Cys131Arg (human) (P22888 27-699 C131R): as the sequence (P22888 27-699) above, with C105R counted along it

Substance	acceptor:donor (BRET) ratio, fold lower than Gluc-LHCGR^WT [1]	acceptor:donor (BRET) ratio, fold lower than Gluc-LHCGR^WT [2]	acceptor:donor (BRET) ratio, fold lower than Gluc-LHCGR^WT [3]	acceptor:donor (BRET) ratio, fold lower than equimolar yhCG^WT-eGFP [4]
yhCG^WT-eGFP (yoked human chorionic gonadotropin fused to eGFP) (ligand)	5.5 fold lower	2.6 fold lower	5.1 fold lower	
yhCG^Glu80Ala-eGFP (yoked human chorionic gonadotropin with CGA Glu80Ala, fused to eGFP) (ligand)				4.6 fold lower
